Reference: patent publication US7947285B2, “Methods for preventing post endoscopic retrograde cholangiopancreatography pancreatitis” (priority 2003, dated 2011)
Where no end group is shown, it is not given here.

How the values were obtained:
Format in all cases: in vivo, human
patients undergoing ERCP [1] = assay: Pain, nausea and vomiting scores pre and post ERCP (0-10 scale)
Procedure: (§1) Incidence of post-ERCP pancreatitis (sPS vs. placebo) was evaluated as the primary efficacy variable in this study. Secondary efficacy variables included incidences of post-ERCP pancreatitis in the following sub-populations: (1) cannulation of CBD; (2) sphincterotomy of CBD; (3) cannulation of pancreatic duct; (4) sphincterotomy of pancreatic duct; (5) stent insertion and removal into CBD; (6) stent insertion and removal into pancreatic duct; (7) stone extraction (basket) from CBD; (8) stone extraction (balloon) from CBD; (9) manometry of CBD; (10) manometry of pancreatic duct; (11) pain scores pre and post ERCP (0-10 scale); (12) nausea scores pre and post ERCP (0-10 scale); (13) vomiting scores pre and post ERCP (0-10 scale); (14) return to baseline activity (pre-ERCP); and (15) return to work.
(§2) Primary and secondary efficacy variables were compared between the treatment groups using the Fisher Exact Test or Cochran-Mantel Haenszel Association Test. Adverse events and vital signs (heart rate, blood pressure) were compared between the treatment groups using the t-test. The clinical assumption on which the power calculation is based was on incidence of post-ERCP pancreatitis among all patients without pancreas divisum of 6%. In order to show a 50% reduction in the rate of post-ERCP pancreatitis with a significance of p=0.05, at a power of 80%, 749 evaluable patients per treatment group (sPS vs. placebo) were needed.
Additional secondary efficacy analyses were performed on post-ERCP pain, nausea, and vomiting using a 0 to 10 digital scale. There were no significant differences between the treatment groups for baseline (pre procedure) pain, nausea and vomiting. There were also no significant differences in these variables post-ERCP although there was a slight numerical trend indicating less nausea for sPS ([…]).

patients undergoing ERCP [2] = assay: Adverse events
Procedure: (§3) This study evaluated the following safety variables: (1) Adverse events; (2) Vital signs; (3) Serum Amylase (when clinically indicated); and (4) Serum Lipase (when clinically indicated). No drug concentration measurements were assessed in this study.
as §2

patients undergoing ERCP [3] = assay: Vital signs (systolic and diastolic BP, pulse) pre and post ERCP
Procedure: as §3, §2
Systolic and Diastolic blood pressure and pulse were measured for all patients' pre and post-ERCP procedure.

patients undergoing ERCP [4] = assay: Return to baseline (pre-ERCP) activity and return to work
Procedure: as §1
Additional secondary efficacy variables assessed were return to baseline (pre-ERCP levels of activity) and the time in days to return of pre-ERCP activity levels. There was a small difference in the percentage of patients reporting return to baseline activity within the follow-up period (2 to 4 days post-ERCP) favoring the placebo group (p=0.0230) (49.78% vs. 42.09%). Interims of the mean number of days required to achieve pre-ERCP activity levels, was 0.6 (±1.0) for the sPS group and 0.7 (±0.9) for the placebo group. An attempt was made to obtain information on return to work. Relatively few data points were able to be collected, however, because a large percentage of patients were not working pre-ERCP (retired, too ill, etc.) among the 185 patients (95 in the sPS group and 90 in the placebo group) providing relevant responses for this variable, 46.32% of sPS patients and 50.00% of placebo patients reported returning to work within the follow-up period.

Q: How did the “Nausea post-ERCP, Mean (SD)” value (patients undergoing ERCP [1]; N = 485) turn out when “synthetic porcine secretin (HSDGTFTSELSRLRDSARLQRLLQGLV-NH2; ends and bridges not checked; UniProt P63298 33-59, looked up) [SPS, synthetic form of porcine secretin, a 27 amino acid gastrointestinal peptide hormone]” was run?
A: The value was 0.9 (2.1) (N = 485).

Q: What about the “Pain Post-ERCP, Mean (SD)” value (patients undergoing ERCP [1]; N = 485) of the same substance?
A: The value was 1.8 (3.0) (N = 485).

Q: What about the “Vomiting post-ERCP, Mean (SD)” value (patients undergoing ERCP [1]; N = 485) of the same substance?
A: Its value is 0.6 (1.9) (N = 485).

Q: What about the “Vomiting pre-ERCP, Mean (SD)” value (patients undergoing ERCP [1]; baseline, N = 482) of the same substance?
A: Its value is 0.1 (0.8) (N = 482).

Q: What about the “Nausea Pre-ERCP, Mean (SD)” value (patients undergoing ERCP [1]; baseline, N = 483) of the same substance?
A: The value was 0.6 (1.7) (N = 483).

Q: And the “Pain Pre-ERCP, Mean (SD)” value (patients undergoing ERCP [1]; baseline, N = 483)?
A: The value was 1.4 (0.6) (N = 483).

Q: What about the “Change in Vomiting, Mean (SD)” value (patients undergoing ERCP [1]; pre to post ERCP, N = 479, p 0.0776) of the same substance?
A: The value was 0.5 (2.0) (N = 479).

Q: And the “Change in Nausea, Mean (SD)” value (patients undergoing ERCP [1]; pre to post ERCP, N = 480, p 0.0284)?
A: Its value is 0.3 (2.5) (N = 480).

Q: What about the “Change in Pain, Mean (SD)” value (patients undergoing ERCP [1]; pre to post ERCP, N = 480, p 0.0668) of the same substance?
A: Its value is 0.4 (3.4) (N = 480).

Q: What about the “Patients with AE related to study drug (%)” value (patients undergoing ERCP [2]; N = 488) of the same substance?
A: Its value is 0.2%.

Q: What about the “Patients with AE related to study drug: number” value (patients undergoing ERCP [2]; N = 488) of the same substance?
A: The value was 1.

Q: What about the “Patients with serious AE (%)” value (patients undergoing ERCP [2]; N = 488) of the same substance?
A: The value was 0 (0) %.

Q: And the “Patients with serious AE: number” value (patients undergoing ERCP [2]; N = 488)?
A: The value was 0 (0).

Q: What about the “Patients with severe AE (%)” value (patients undergoing ERCP [2]; N = 488) of the same substance?
A: Its value is 0.2%.

Q: And the “Patients with severe AE: number” value (patients undergoing ERCP [2]; N = 488)?
A: Its value is 1.

Q: What about the “Patients with unknown severity to AE (%)” value (patients undergoing ERCP [2]; N = 488) of the same substance?
A: Its value is 0.2%.

Q: What about the “Patients with unknown severity to AE: number” value (patients undergoing ERCP [2]; N = 488) of the same substance?
A: Its value is 1.

Q: And the “Total No. of AEs related to study drug” value (patients undergoing ERCP [2]; N = 488)?
A: The value was 1.

Q: And the “Total No. of AEs related to study drug (%)” value (patients undergoing ERCP [2]; N = 488)?
A: The value was 0.2%.

Q: And the “Total No. of serious Aes” value (patients undergoing ERCP [2]; N = 488)?
A: The value was 0 (0).

Q: And the “Total No. of serious Aes (%)” value (patients undergoing ERCP [2]; N = 488)?
A: The value was 0 (0) %.

Q: And the “Total No. of severe Aes” value (patients undergoing ERCP [2]; N = 488)?
A: Its value is 2.

Q: What about the “Total No. of severe Aes (%)” value (patients undergoing ERCP [2]; N = 488) of the same substance?
A: Its value is 0.4%.

Q: What about the “Total No. of unknown severity to AE” value (patients undergoing ERCP [2]; N = 488) of the same substance?
A: The value was 1.

Q: What about the “Total No. of unknown severity to AE (%)” value (patients undergoing ERCP [2]; N = 488) of the same substance?
A: Its value is 0.2%.

Q: And the “Total No. of Aes” value (patients undergoing ERCP [2]; N = 488, p 0.0006)?
A: The value was 25.

Q: And the “Total No. of Aes (%)” value (patients undergoing ERCP [2]; N = 488, p 0.0006)?
A: Its value is 5.1%.

Q: And the “Total No. of mild/moderate Aes” value (patients undergoing ERCP [2]; N = 488, p 0.0039)?
A: The value was 21.

Q: And the “Total No. of mild/moderate Aes (%)” value (patients undergoing ERCP [2]; N = 488, p 0.0039)?
A: Its value is 4.3%.

Q: What about the “Patients with any AE (%)” value (patients undergoing ERCP [2]; N = 488, p 0.0052) of the same substance?
A: Its value is 4.1%.

Q: What about the “Patients with any AE: number” value (patients undergoing ERCP [2]; N = 488, p 0.0052) of the same substance?
A: Its value is 20.

Q: What about the “Patients with mild/moderate AE (%)” value (patients undergoing ERCP [2]; N = 488, p 0.0208) of the same substance?
A: Its value is 3.5%.

Q: What about the “Patients with mild/moderate AE: number” value (patients undergoing ERCP [2]; N = 488, p 0.0208) of the same substance?
A: The value was 17.

Q: And the “AE judged by the investigator to be related to study drug” value (patients undergoing ERCP [2]; patient #16, mild AE of an hour duration)?
A: Its value is “drop in blood pressure”.

Q: What about the “overall safety and tolerability” value (patients undergoing ERCP [2]; patients undergoing ERCP, 16 mcg IV) of the same substance?
A: Its value is “safe and well tolerated”.

Q: And the “Diastolic BP post-ERCP, Mean (SD)” value (patients undergoing ERCP [3]; N = 381)?
A: Its value is 68.7 (13.4) (N = 381) mm/Hg.

Q: And the “Pulse post-ERCP, Mean (SD)” value (patients undergoing ERCP [3]; N = 381)?
A: Its value is 91.0 (20.4) (N = 381).

Q: And the “Systolic BP post-ERCP, Mean (SD)” value (patients undergoing ERCP [3]; N = 381)?
A: Its value is 131.0 (23.9) (N = 381) mm/Hg.

Q: What about the “Diastolic BP pre-ERCP, Mean (SD)” value (patients undergoing ERCP [3]; baseline, N = 397) of the same substance?
A: Its value is 74.6 (12.8) (N = 397) mm/Hg.

Q: And the “Pulse pre-ERCP, Mean (SD)” value (patients undergoing ERCP [3]; baseline, N = 397)?
A: The value was 81.0 (15.7) (N = 397).

Q: And the “Systolic BP pre-ERCP, Mean (SD)” value (patients undergoing ERCP [3]; baseline, N = 397)?
A: Its value is 142.3 (24.9) (N = 397) mm/Hg.

Q: And the “Change in Systolic BP, Mean (SD)” value (patients undergoing ERCP [3]; pre to post ERCP, N = 378, p 0.0007)?
A: Its value is −11.4 (29.2) (N = 378) mm/Hg.

Q: And the “Change in Diastolic BP, Mean (SD)” value (patients undergoing ERCP [3]; pre to post ERCP, N = 378, p 0.1163)?
A: The value was −6.0 (15.3) (N = 378) mm/Hg.

Q: What about the “Change in Pulse, Mean (SD)” value (patients undergoing ERCP [3]; pre to post ERCP, N = 378, p 0.1324) of the same substance?
A: Its value is 9.7 (17.7) (N = 378).

Q: What about the “mean number of days required to achieve pre-ERCP activity levels” value (patients undergoing ERCP [4]; in vivo) of the same substance?
A: The value was 0.6 (±1.0) days.

Q: And the “percentage of patients reporting return to baseline activity” value (patients undergoing ERCP [4]; within the follow-up period (2 to 4 days post-ERCP), p=0.0230 favoring placebo)?
A: The value was 42.09%.

Q: And the “patients reported returning to work” value (patients undergoing ERCP [4]; within the follow-up period, 95 patients in the sPS group, not significant)?
A: Its value is 46.32%.
